{
  "source": "patent US20260209789A1",
  "about": "“TRIGGER-INDUCIBLE MRNA CIRCULARIZATION” (WESTLAKE UNIVERSITY, priority 2022, published 2026)",
  "molecules": {"B1": {"name": "(Coh2)3-NSP3: bipartite STIF regulator (protein)", "chain": "MVVVEIGKVTGSVGTTVEIPVYFRGVPSKGIANCDFVFRYDPNVLEIIGIDPGDIIVDPNPTKSFDTAIYPDRKIIVFLFAEDSGTGAYAITKDGVFAKIRATVKSSAPGYITFDEVGGFADNDLVEQKVSFIDGGVNVASGSGGGGDVASVVVEIGKVTGSVGTTVEIPVYFRGVPSKGIANCDFVFRYDPNVLEIIGIDPGDIIVDPNPTKSFDTAIYPDRKIIVFLFAEDSGTGAYAITKDGVFAKIRATVKSSAPGYITFDEVGGFADNDLVEQKVSFIDGGVNVASGSGGGGDVASVVVEIGKVTGSVGTTVEIPVYFRGVPSKGIANCDFVFRYDPNVLEIIGIDPGDIIVDPNPTKSFDTAIYPDRKIIVFLFAEDSGTGAYAITKDGVFAKIRATVKSSAPGYITFDEVGGFADNDLVEQKVSFIDGGVNVASGSGGGGDVASMLKMESTQQMASSIINTSFEAAVVAATSTLELMGIQYDYNEVYTRVKSKFDYVMDDSGVKNNLLGKAATIDQALNGKFGSAARNRNWMADTRTTARLDEDVNKLRMMLSSKGIDQKMRVLNACFNVKRVPGKSSSIIKCTRLMRDKIERGEVEVDDSFVEEKMEVDTIDWKSRYEQLEKRFESLKQRVNEKYTSWVQKAKKVNENMYSLQNVISQQQSQIADLQNYCNKLEVDLQNKISSLVSSVEWYLKSMELPDEIKTDIEQQLNSIDVINPINAIDDFESLIRNIILDYDRIFLMFKGLMRQCNYEYTYE"}, "B2": {"name": "(scFv162)3-NSP3: bipartite STIF regulator (protein)", "chain": "MAEVQVQQSGAELVRSGASVKLSCTASGFNIKDYYMHWVKQRPEQGLEWIGWIDPANGNTKYDPKFQGKATITADTSSNTAYLQLSSLTSEDTAVYYCARWDWYFDVWGAGTTVTVSSGGGGSGGGGSGGGGSVFASGSGGGGDVASMAEVQVQQSGAELVRSGASVKLSCTASGFNIKDYYMHWVKQRPEQGLEWIGWIDPANGNTKYDPKFQGKATITADTSSNTAYLQLSSLTSEDTAVYYCARWDWYFDVWGAGTTVTVSSGGGGSGGGGSGGGGSVFASGSGGGGDVASMAEVQVQQSGAELVRSGASVKLSCTASGFNIKDYYMHWVKQRPEQGLEWIGWIDPANGNTKYDPKFQGKATITADTSSNTAYLQLSSLTSEDTAVYYCARWDWYFDVWGAGTTVTVSSGGGGSGGGGSGGGGSVFASGSGGGGDVASMLKMESTQQMASSIINTSFEAAVVAATSTLELMGIQYDYNEVYTRVKSKFDYVMDDSGVKNNLLGKAATIDQALNGKFGSAARNRNWMADTRTTARLDEDVNKLRMMLSSKGIDQKMRVLNACFNVKRVPGKSSSIIKCTRLMRDKIERGEVEVDDSFVEEKMEVDTIDWKSRYEQLEKRFESLKQRVNEKYTSWVQKAKKVNENMYSLQNVISQQQSQIADLQNYCNKLEVDLQNKISSLVSSVEWYLKSMELPDEIKTDIEQQLNSIDVINPINAIDDFESLIRNIILDYDRIFLMFKGLMRQCNYEYTYE"}, "B3": {"name": "PAFP: alpha-fetoprotein (AFP) promoter, model tissue-specific promoter (nucleic acid)", "DNA": "AGGGGAAATAATCTATTTGAACAGTTTAGATGGTGAAGAACATTTGCAGCATTTGCAAGATTTTTTTCCACTCTGAAGTGGTCTTTGTCCTTGAACATAGGATACAAGTGACCCCTGCTCTGTTAATTATTGGCAAATTGCCTAACTTCAACGTAAGGAAATAGAGTCATATGTTTGCTCACTGAAGGTTACTAGTTAACAGGCATCCCTTAAACAGGATATAAAAGGACTTCAGCAGGACTGCTCGAAACATCCCACTTCCAGCACTGCCTGCGGTGAAGGA"}, "B4": {"name": "CCmut3-NSP3: bipartite STIF regulator (protein)", "chain": "MVDPVGFAEAWKAQFPDSEPPRMELRSVGDIEQELERAEARIRRNEQRVNQERFRMIYLETLLAKEKKSYDRASGSGGGGDVASMLKMESTQQMASSIINTSFEAAVVAATSTLELMGIQYDYNEVYTRVKSKFDYVMDDSGVKNNLLGKAATIDQALNGKFGSAARNRNWMADTRTTARLDEDVNKLRMMLSSKGIDQKMRVLNACFNVKRVPGKSSSIIKCTRLMRDKIERGEVEVDDSFVEEKMEVDTIDWKSRYEQLEKRFESLKQRVNEKYTSWVQKAKKVNENMYSLQNVISQQQSQIADLQNYCNKLEVDLQNKISSLVSSVEWYLKSMELPDEIKTDIEQQLNSIDVINPINAIDDFESLIRNIILDYDRIFLMFKGLMRQCNYEYTYE"}},
  "key": {"(DocS)3": {"molecular_target": "T1, (DocS)3 (Acetivibrio thermocellus, UniProt A3DH67)", "T1 sequence (A3DH67 with tags, fused parts or gaps)": "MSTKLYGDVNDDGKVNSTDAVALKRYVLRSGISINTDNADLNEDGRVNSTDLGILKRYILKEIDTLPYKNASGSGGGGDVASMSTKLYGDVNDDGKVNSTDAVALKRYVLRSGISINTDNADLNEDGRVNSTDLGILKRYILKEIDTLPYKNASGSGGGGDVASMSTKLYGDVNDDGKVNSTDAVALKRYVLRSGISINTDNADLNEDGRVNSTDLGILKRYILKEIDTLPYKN", "experiment": "Coh2/DocS-based STIF protein sensor for cytosolic (DocS)3", "conditions": "different amounts of pSL244, 48 h"}, "nNS3": {"system": "nNS3", "conditions": "different amounts of overexpressed nNS3, 48 h"}, "[1]": {"system": "N2A, Hepa1-6 and B16-F10 cells", "experiment": "AFP promoter-driven NanoLuc reporter and AFP qRT-PCR", "format": "cell-based, murine", "conditions": "AFP-deficient cell lines, 48 h", "description": "(A) Quantification of AFP-levels using (left panel) TSP-driven reporter gene expression and (right panel) qRT-PCR. (left panel) N2A, Hepa1-6 and B16-F10 cells were co-transfected with a PMusAFP-driven NanoLuc expression vector (pSLM54) and a constitutive FLuc expression vector (pYW99). Luciferase levels were quantified at 48 h after transfection. Data presented are mean±SD of relative luciferase activity (NanoLuc/FLuc) for n=3 individual experiments. (right panel) Relative AFP expression levels in N2A, Hepa1-6 and B16-F10 cells were profiled by qRT-PCR using murine AFP-specific primers listed in Table S1 and normalized to the gene encoding murine ribosomal protein (Rplp0).\nReverse transcription-polymerase chain reaction (RT-PCR). For quantitative analysis, PCR reaction was carried out with an initial step of 95° C. for 30 s followed by 40 cycles of 95° C. for 10 s and 60° C. for 30 s on the Applied Biosystems QuantStudio 1 Real-Time PCR System (ThermoFisher Scientific) using the ChamQ Universal SYBR qPCR Master Mix (Vazyme Biotech; cat. no. Q711-02) and the primers listed in Table S1. The relative cycle threshold (CT) was determined and normalized against the expression level of endogenous human glyceraldehyde 3-phosphate dehydrogenase (GAPDH) or murine ribosomal protein (Rplp0) genes. […]"}, "BCR-ABL": {"system": "BCR-ABL", "sequence (as listed by the source)": "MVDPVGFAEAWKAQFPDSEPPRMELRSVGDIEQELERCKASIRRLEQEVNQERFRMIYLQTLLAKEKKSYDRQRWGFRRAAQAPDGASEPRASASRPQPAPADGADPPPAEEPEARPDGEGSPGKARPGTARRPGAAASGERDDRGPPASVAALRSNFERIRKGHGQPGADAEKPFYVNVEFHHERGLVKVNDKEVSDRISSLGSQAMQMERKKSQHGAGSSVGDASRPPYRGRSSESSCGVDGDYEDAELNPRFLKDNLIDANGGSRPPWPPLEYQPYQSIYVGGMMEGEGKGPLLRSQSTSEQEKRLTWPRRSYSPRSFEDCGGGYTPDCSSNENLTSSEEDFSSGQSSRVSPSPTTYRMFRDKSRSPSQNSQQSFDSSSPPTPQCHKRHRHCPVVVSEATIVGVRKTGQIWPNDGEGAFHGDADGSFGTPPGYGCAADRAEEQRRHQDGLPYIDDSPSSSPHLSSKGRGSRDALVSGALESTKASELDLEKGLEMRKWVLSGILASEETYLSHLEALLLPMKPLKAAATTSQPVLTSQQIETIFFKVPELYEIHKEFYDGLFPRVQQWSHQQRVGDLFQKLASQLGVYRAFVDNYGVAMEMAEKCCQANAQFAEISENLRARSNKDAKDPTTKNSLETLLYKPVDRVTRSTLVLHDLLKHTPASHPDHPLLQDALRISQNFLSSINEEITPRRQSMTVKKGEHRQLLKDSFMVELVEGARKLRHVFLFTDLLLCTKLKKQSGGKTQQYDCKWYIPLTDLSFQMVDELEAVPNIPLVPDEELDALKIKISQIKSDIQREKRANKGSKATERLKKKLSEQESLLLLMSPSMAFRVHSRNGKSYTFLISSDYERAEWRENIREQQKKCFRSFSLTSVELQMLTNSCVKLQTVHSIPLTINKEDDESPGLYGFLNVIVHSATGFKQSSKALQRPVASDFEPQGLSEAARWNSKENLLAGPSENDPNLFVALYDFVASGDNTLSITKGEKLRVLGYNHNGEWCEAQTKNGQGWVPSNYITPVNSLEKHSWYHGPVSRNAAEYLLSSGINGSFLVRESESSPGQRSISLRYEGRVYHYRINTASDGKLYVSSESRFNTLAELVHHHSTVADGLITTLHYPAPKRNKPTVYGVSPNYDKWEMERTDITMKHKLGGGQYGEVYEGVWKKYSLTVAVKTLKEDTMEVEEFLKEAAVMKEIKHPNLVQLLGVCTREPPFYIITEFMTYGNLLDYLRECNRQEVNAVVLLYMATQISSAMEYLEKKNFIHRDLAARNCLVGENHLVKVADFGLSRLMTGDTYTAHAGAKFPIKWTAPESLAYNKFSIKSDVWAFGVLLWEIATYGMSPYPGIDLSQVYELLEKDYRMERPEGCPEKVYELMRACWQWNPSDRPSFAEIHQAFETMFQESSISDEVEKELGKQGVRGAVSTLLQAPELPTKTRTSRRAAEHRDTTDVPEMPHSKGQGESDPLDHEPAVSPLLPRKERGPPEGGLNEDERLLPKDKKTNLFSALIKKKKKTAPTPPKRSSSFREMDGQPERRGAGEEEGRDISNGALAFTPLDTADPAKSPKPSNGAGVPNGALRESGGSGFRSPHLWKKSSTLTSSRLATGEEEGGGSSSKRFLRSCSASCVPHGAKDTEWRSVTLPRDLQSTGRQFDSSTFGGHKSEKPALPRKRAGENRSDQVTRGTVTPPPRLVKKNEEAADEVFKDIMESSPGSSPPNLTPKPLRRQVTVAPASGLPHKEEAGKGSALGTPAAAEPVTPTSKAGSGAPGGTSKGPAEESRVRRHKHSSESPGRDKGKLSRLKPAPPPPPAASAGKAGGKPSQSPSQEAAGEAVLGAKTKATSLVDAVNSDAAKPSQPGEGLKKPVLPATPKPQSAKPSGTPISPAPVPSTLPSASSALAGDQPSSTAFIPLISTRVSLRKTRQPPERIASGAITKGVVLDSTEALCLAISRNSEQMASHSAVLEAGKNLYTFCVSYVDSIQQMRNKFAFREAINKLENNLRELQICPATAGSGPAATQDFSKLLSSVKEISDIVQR", "experiment": "Co-immunoprecipitation: BCR-ABL-mediated association of STIF components", "format": "binding, human", "conditions": "HEK-293 cells, 48 h"}},
  "data": [
    {"molecule": "B1", "values": [
      {"measurement": "detection of cytosolic (DocS)3 (SEAP)", "setting": "(DocS)3", "result": "in a dose-dependent manner"}
    ]},
    {"molecule": "B2", "values": [
      {"measurement": "activation of translation of L7Ae-specific target mRNA (SEAP)", "setting": "nNS3", "result": "in a strict nNS3-dependent manner"}
    ]},
    {"molecule": "B3", "values": [
      {"measurement": "promoter-driven reporter gene expression (NanoLuc/FLuc)", "setting": "[1]", "result": "non-specific PAFP-driven reporter gene expression"}
    ]},
    {"molecule": "B4", "values": [
      {"measurement": "assembly of STIF components upon BCR-ABL overexpression (co-IP)", "setting": "BCR-ABL", "result": "triggers assembly"}
    ]}
  ]
}
